Like-named read-outs stand apart in the source and are kept apart here.
Tests used:
Fas death domain [1] = target: Fas death domain (UniProt P25445)
[2] = target: FADD death domain, His6-tagged (UniProt Q13158); experiment: pull-down
Fas death domain [3] = target: Fas death domain (UniProt P25445); experiment: crystal structure

UniProt Q13158, sequence (Q13158 93-191): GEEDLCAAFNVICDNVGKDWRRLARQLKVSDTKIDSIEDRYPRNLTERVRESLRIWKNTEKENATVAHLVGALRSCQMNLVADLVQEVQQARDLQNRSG

Fas death domain (from UniProt P25445 230-314) (domain or fragment)
stoichiometry N (Fas death domain [1]): 4
concentration at which the complex dissociates [2]: 50 µM
stoichiometry N (Fas death domain [3]): 4

— publication PMC2661029
